Results taken from patent US20230346938A1 (Memorial Sloan Kettering, published 2023).

What was measured:
[1] = molecular target: T1, CD19 endogenously expressed on Raji and NALM-6 cells (human, UniProt P15391 20-556); assay: flow cytometry, serial dilution on NALM-6 cells
T1 construct: whole, on cells; also called CD19 on NALM-6 cells; CD19 on Raji cells
T1 sequence (looked up): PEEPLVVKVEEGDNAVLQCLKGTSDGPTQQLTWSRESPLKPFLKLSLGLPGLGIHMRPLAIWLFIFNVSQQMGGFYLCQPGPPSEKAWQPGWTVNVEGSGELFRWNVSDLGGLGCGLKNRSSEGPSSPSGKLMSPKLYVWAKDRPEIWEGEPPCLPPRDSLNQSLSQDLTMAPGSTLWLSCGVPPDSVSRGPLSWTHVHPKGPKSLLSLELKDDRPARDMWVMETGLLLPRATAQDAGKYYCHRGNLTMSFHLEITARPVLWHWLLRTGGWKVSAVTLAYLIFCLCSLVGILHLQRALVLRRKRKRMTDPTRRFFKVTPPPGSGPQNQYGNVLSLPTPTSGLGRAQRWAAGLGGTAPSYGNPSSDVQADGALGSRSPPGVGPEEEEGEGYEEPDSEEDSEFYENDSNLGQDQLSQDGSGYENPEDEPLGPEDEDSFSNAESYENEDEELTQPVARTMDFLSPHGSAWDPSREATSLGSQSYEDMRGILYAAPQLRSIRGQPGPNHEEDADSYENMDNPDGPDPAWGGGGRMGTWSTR

[2] = molecular target: T2, soluble CD19-HSA fusion protein (CD19 extracellular domains fused to human serum albumin) (human, UniProt P15391 20-291); assay: BLI (ForteBio Octet RED384), IgG on AHC sensors, 100 nM soluble CD19-HSA, 1:1 model
T2 construct: extracellular domain; also called recombinant CD19 antigen; not shown: human serum albumin
T2 sequence (looked up): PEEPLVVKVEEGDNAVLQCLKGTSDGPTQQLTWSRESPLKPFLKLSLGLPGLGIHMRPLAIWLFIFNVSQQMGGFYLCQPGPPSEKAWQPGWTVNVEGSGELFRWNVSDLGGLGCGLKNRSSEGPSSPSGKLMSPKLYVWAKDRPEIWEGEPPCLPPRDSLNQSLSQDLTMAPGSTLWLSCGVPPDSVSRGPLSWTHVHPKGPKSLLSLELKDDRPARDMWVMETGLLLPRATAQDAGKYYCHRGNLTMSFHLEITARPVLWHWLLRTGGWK

B1: Antibody 6 (antibody, V domains shown)
VH: QVQLVESGGGVVQPGRSLRLSCAASGFTFSSYGMHWVRQAPGKGLEWVALIWYDGSNKYYADSVKGRFTISRDNSKNTLYLQMNSLRAEDTAVYYCAKPVEGLLRGFDYWGQGTLVTVSS
VL: EIVLTQSPGTLSLSPGERATLSCRASQSVRSSYLAWYQQKPGQAPRLLIYGASSRATGIPDRFSGSGSGTDFTLTISRLEPEDFAVYYCQQAGVPPLTFGGGTKVEIK
notes: Human IgG produced in Adimab yeast, purified on Protein A; Has the VH and VL of #6 scFv; also called CD19 Antibody 6
What does the source list for B1?
EC50 [1]: 0.18 nM; Kd [2]: 6.4 nM; koff [2]: 0.000484 s⁻¹; kon [2]: 75600 M⁻¹ s⁻¹

B2: Antibody 5 (antibody, V domains shown)
VH: QVQLVESGGGVVQPGRSLRLSCAASGFTFSSYGMHWVRQAPGKGLEWVALIWYDGSNKYYADSVKGRFTISRDNSKNTLYLQMNSLRAEDTAVYYCAKPVEGLLRGFDYWGQGTLVTVSS
VL: EIVLTQSPGTLSLSPGERATLSCRASQSVSSSYLAWYQQKPGQAPRLLIYGASSRATGIPDRFSGSGSGTDFTLTISRLEPEDFAVYYCQQAGGVPPLTFGGGTKVEIK
notes: Human IgG produced in Adimab yeast, purified on Protein A; Has the VH and VL of #5 scFv; also called CD19 Antibody 5
B2 was tested. Which EC50 [1] did it give?
Its EC50 is 0.219 nM.

And the Kd [2]?
The Kd was 10.4 nM.

What about the koff [2] of the same binder?
Its koff is 0.000785 s⁻¹.

And the kon [2]?
Its kon is 75600 M⁻¹ s⁻¹.

B3: Antibody 2 (antibody, V domains shown)
VH: QVQLVESGGGVVQPGRSLRLSCAASGFTFSSYGMHWVRQAPGKGLEWVALIWYDGSNKYYADSVKGRFTISRDNSKNTLYLQMNSLRAEDTAVYYCAKPVEGLLRGFDYWGQGTLVTVSS
VL: EIVLTQSPGTLSLSPGERATLSCRASQSVSSSYLAWYQQKPGQAPRLLIYGASSRATGIPDRFSGSGSGTDFTLTISRLEPEDFAVYYCQQAGAVPITFGGGTKVEIK
notes: Human IgG produced in Adimab yeast, purified on Protein A; also called CD19 Antibody 2
B3 was tested. Which EC50 [1] did it give?
The EC50 was 0.314 nM.

What about the Kd [2] of the same binder?
The Kd was 9.01 nM.

And the koff [2]?
The koff was 0.000554 s⁻¹.

And the kon [2]?
The kon was 61500 M⁻¹ s⁻¹.

B4: Antibody 1 (antibody, V domains shown)
VH: QVQLVESGGGVVQPGRSLRLSCAASGFTFSSYGMHWVRQAPGKGLEWVALIWYDGSNKYYADSVKGRFTISRDNSKNTLYLQMNSLRAEDTAVYYCAKPVEGLLRGFDYWGQGTLVTVSS
VL: EIVMTQSPGTLSLSPGERATLSCRASQSVSSSYLAWYQQKPGQAPRLLIYGASNRATGIPDRFSGSGSGTDFTLTISRLEPEDFAVYYCQQAGVFPFTFGGGTKVEIK
notes: Human IgG produced in Adimab yeast, purified on Protein A; Has the VH and VL of #1 scFv; also called CD19 Antibody 1
What does the source list for B4?
EC50 [1]: 0.588 nM; Kd [2]: 32.9 nM; koff [2]: 0.00176 s⁻¹; kon [2]: 53400 M⁻¹ s⁻¹

B5: Antibody 7 (antibody, V domains shown)
VH: QVQLVESGGGVVQPGRSLRLSCAASGFTFSSYGMHWVRQAPGKGLEWVALIWYDGSNKYYADSVKGRFTISRDNSKNTLYLQMNSLRAEDTAVYYCAKPVEGLLRGFDYWGQGTLVTVSS
VL: EIVMTQSPGTLSLSPGERATLSCRASQSVSSSYLAWYQQKPGQAPRLLIYGASSRATGIPDRFSGSGSGTDFTLTISRLEPEDFAVYYCQQAGGVPPFTFGGGTKVEIK
notes: Human IgG produced in Adimab yeast, purified on Protein A; Has the VH and VL of #7 scFv; also called CD19 Antibody 7
How did the EC50 [1] turn out when B5 was run?
Its EC50 is 0.21 nM.

What about the Kd [2] of the same binder?
Its Kd is 14.9 nM.

What about the koff [2] of the same binder?
The koff was 0.00105 s⁻¹.

What about the kon [2] of the same binder?
The kon was 70000 M⁻¹ s⁻¹.

B6: Antibody 15 (antibody, V domains shown)
VH: QVQLVESGGGVVQPGRSLRLSCAASGFTFSSYGMHWVRQAPGKGLEWVALIWYDGSNKYYADSVKGRFTISRDNSKNTLYLQMNSLRAEDTAVYYCAKPVEGLLRGFDYWGQGTLVTVSS
VL: EIVLTQSPGTLSLSPGERATLSCRASQSVSSSYLAWYQQKPGQAPRLLIYGASRRATGIPDRFSGSGSGTDFTLTISRLEPEDFAVYYCQQAGIPPYTFGGGTKVEIK
notes: Human IgG produced in Adimab yeast, purified on Protein A; Has the VH and VL of #15 scFv; also called CD19 Antibody 15
How did the EC50 [1] turn out when B6 was run?
The EC50 was 0.27 nM.

What about the Kd [2] of the same binder?
Its Kd is 20.8 nM.

And the koff [2]?
Its koff is 0.00145 s⁻¹.

And the kon [2]?
Its kon is 69800 M⁻¹ s⁻¹.

B7: Antibody 4 (antibody, V domains shown)
VH: QVQLVESGGGVVQPGRSLRLSCAASGFTFSSYGMHWVRQAPGKGLEWVALIWYDGSNKYYADSVKGRFTISRDNSKNTLYLQMNSLRAEDTAVYYCAKPVEGLLRGFDYWGQGTLVTVSS
VL: EIVLTQSPGTLSLSPGERATLSCRASQSVSSSYLAWYQQKPGQAPRLLIYGASSRATGIPDRFSGSGSGTDFTLTISRLEPEDFAVYYCQQVDSLHPFTFGGGTKVEIK
notes: Human IgG produced in Adimab yeast, purified on Protein A; Has the VH and VL of #4 scFv; also called CD19 Antibody 4
What does the source list for B7?
EC50 [1]: 0.519 nM; Kd [2]: 9.27 nM; koff [2]: 0.000218 s⁻¹; kon [2]: 23500 M⁻¹ s⁻¹
